The results in this text go back to publication PMC4229625.

For this experiment, the target named is GST-Ana2 phosphorylated by active Plk4 (MBP-Plk4) (Drosophila) (UniProt Q9XZ31). Kind of experiment: pull-down; recombinant GST-Ana2 (or its fragments or mutants) on beads, incubated with active MBP-Plk4 or inactive MBP-Plk4^KD, then with ^35S-Met-labeled proteins made by in vitro transcription and translation; SDS-PAGE and autoradiography.
Chain of UniProt Q9XZ31 (Q9XZ31 entry or part of it): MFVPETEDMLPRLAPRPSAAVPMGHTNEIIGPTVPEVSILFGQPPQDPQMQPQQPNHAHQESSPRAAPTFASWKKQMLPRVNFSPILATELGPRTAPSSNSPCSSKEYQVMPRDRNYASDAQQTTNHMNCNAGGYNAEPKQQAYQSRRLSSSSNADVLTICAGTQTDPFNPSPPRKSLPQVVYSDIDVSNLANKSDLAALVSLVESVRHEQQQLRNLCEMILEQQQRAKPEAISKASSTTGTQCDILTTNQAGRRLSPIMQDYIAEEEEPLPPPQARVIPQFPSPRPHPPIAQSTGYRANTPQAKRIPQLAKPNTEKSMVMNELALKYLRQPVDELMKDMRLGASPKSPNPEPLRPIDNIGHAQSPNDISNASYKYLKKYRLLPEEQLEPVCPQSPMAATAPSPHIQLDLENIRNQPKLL

For the substance “^35S-Met-labeled Bld10 (natural protein)”, the fold increase of binding against Ana2 treated with inactive Plk4 stood at 3.5 fold.
